Measurements as given in the Human Domainome abundance scans (Beltran et al. 2025).

B1: COUP transcription factor 1, residues 83 to 159; numbered along this chain, P10589 (parent)
chain: HIECVVCGDKSSGKHYGQFTCEGCKSFFKRSVRRNLTYTCRANRNCPIDQHHRNQCQYCRLKKCLKVGMRREAVQRG

Variants of: B1
Experiment: abundance fitness (aPCA) (normalised: wild type 0, dead -1); higher = more abundant; growth selection in yeast, the domain comes from the species named
Settings: Homo sapiens

Abundance fitness of substitutions, site by site:
L61: Q -0.346 | M 0.073 | G -0.73 | D -0.799 | N -0.702 | C -0.649 | I -0.163 | R -0.84
G68: H -0.775 | P -0.939 | R -0.65 | W -0.666 | L -0.572 | D -0.728 | C -0.597 | K -0.747 | V -0.671 | E -0.524 | F -0.609 | A -0.729 | I -0.494 | T -0.677 | N -0.211 | Y -0.436 | S -0.593 | M -0.624 | Q -0.731
V67: L -0.118 | N -0.125 | P -0.953 | A -0.099 | K -0.127 | M 0.099 | S -0.117 | D -0.398 | R -0.16 | I -0.093 | G -0.26 | W -0.325 | E 0.013 | C -0.088 | Y -0.18 | H -0.157 | F -0.115 | Q 0.036
M69: I -0.484 | G -0.711 | D -1.06 | E -0.723 | R -0.737 | L -0.027 | P -0.661 | A -0.943 | C -0.38 | W -0.629 | T -0.719 | Y -0.77 | Q -0.831 | H -1.08 | N -0.864 | S -0.783
C64: G -0.669 | W -0.675 | Y -0.537 | A -0.203 | D -0.893 | F -0.903 | K -0.866 | I -0.928 | S -0.475 | V -0.823 | T -0.758 | E -0.831 | L -0.513 | R -0.908 | H -0.577 | M -0.059 | Q -0.8
K63: D -0.874 | F -0.372 | Q -0.139 | W -0.391 | V -0.249 | S -0.464 | G -0.526 | M -0.048 | L -0.337 | T -0.356 | H -0.114 | I -0.402 | N -0.626 | C -0.17 | E -0.161 | R -0.094 | Y -0.277 | P -0.647 | A -0.254
R53: I -0.169 | H -0.231 | C -0.001 | V -0.069 | E 0.018 | N -0.044 | D 0.055 | P 0.111 | S -0.178 | A 0.022 | M -0.099 | W -0.288 | L -0.081 | Y 0.224 | T 0.017 | Q 0.12 | F -0.495 | K -0.218
C56: V -0.758 | D -0.815 | N -0.373 | M -0.636 | G -0.786 | E -0.87 | S -0.723 | R -0.886 | I -0.627 | K -0.926 | P -1 | H -0.6 | A -0.552 | T -1.13 | Y -0.612 | Q -0.82 | F -0.506
Q55: K -0.021 | V -0.003 | F 0.069 | D 0.123 | G -0.017 | H 0.017 | W 0.095 | R -0.074 | L -0.059 | A -0.02 | M -0.126 | Y -0.039 | P -0.109 | I 0.006 | T -0.101 | C 0.008 | N -0.083 | E 0.19
H52: F -0.068 | D -0.092 | K -0.035 | A 0.041 | N -0.1 | C -0.092 | S -0.102 | I 0.07 | Y -0.225 | V 0.023 | E 0.08 | P 0.09 | M -0.019 | R -0.154 | W -0.263 | Q 0.095 | G 0.035
